Data on two substances can be found in PMC12041195.

Holding throughout (assay): BLI
Background: BLI is a label-free optical method that tracks binding on a fibre tip over time.

Experiment [1] addresses recombinant HA protein of A/Hong Kong/45/2019 (H3N2) (influenza A virus A/Hong Kong/45/2019 (H3N2)).
The target of experiment [2] is recombinant HA protein of A/Beijing/262/1995 (H1N1) (influenza A virus A/Beijing/262/1995 (H1N1)).
For experiment [3], the target named is recombinant HA protein of A/Aichi/2/1968 (H3N2) (influenza A virus A/Aichi/2/1968 (H3N2)) (UniProt P03437).
In experiment [4] the target is recombinant HA protein of A/New Caledonia/20/1999 (H1N1) (influenza A virus A/New Caledonia/20/1999 (H1N1)).

On to IgG-F045-092 (antibody), for which the Kd (in general, a measure of binding affinity in units of concentration) in experiment [1] was determined as 12500 pM.

Consider “IgM-F045-092 (from UniProt P01591 23-159) (antibody)”, for which the Kd in experiment [2], in experiment [3], in experiment [1] and in experiment [4] was < 1 pM throughout.
